Assay results taken from patent US11906524B2, “Urea biosensors and uses thereof” (Duke University, priority 2015, dated 2024).
Read-outs that look alike come from different tables or passages of the source.

B1: csUBP7 R95C: csUBP7 95C cysteine mutant (SEQ ID NO: 32), tested as Acrylodan and Badan conjugates (conjugate)
chain: MSSSESEKEKSEETIKVGILHSLSGTMSISEVSLKDAELMAIEEINNNGGVLGKKLEPIVEDGASDWPTFAEKAKKLLQKDKVAVIFGAWTSASCKAVLPVVEENNGLLFYPVQYEGLESSPNIFYMGAAPNQQIVPAVKWLFDNGKKRFYLLGSDYVFPRTANKIIKAYLKYLGGVVVGEEYTPLGHTDYSSVINKIKAAKPDVVFNTLNGDSNVAFFKQLKDAGIDANTLPVMSVSIAEEEIKGIGPEYLKGHLVTWNYFQSVDTPENKEFVEKYKKKYGEDRVTDDPIEAAYIGVYLWAKAVEKAGSTDVDKVREAAKGIEFNAPEGPVKIDGDNQHLYKTVRIGEILENGQIRELWKTNKPVKPDPYLKGYEWAQGLSEQGGSHHHHHH
modifications: Acrylodan or Badan conjugate; csUBP7_95C (95C substitution mutant with signal peptide replaced with M and a GGSHHHHHH at C-terminus, and also comprising a C89A substitution)
B2: csUBP7 M27C: csUBP7 27C cysteine mutant (SEQ ID NO: 24), tested as Acrylodan and Badan conjugates (conjugate)
chain: MSSSESEKEKSEETIKVGILHSLSGTCSISEVSLKDAELMAIEEINNNGGVLGKKLEPIVEDGASDWPTFAEKAKKLLQKDKVAVIFGAWTSASRKAVLPVVEENNGLLFYPVQYEGLESSPNIFYMGAAPNQQIVPAVKWLFDNGKKRFYLLGSDYVFPRTANKIIKAYLKYLGGVVVGEEYTPLGHTDYSSVINKIKAAKPDVVFNTLNGDSNVAFFKQLKDAGIDANTLPVMSVSIAEEEIKGIGPEYLKGHLVTWNYFQSVDTPENKEFVEKYKKKYGEDRVTDDPIEAAYIGVYLWAKAVEKAGSTDVDKVREAAKGIEFNAPEGPVKIDGDNQHLYKTVRIGEILENGQIRELWKTNKPVKPDPYLKGYEWAQGLSEQGGSHHHHHH
modifications: Acrylodan or Badan conjugate; csUBP7_27C (27C substitution mutant with signal peptide replaced with M and a GGSHHHHHH at C-terminus, and also comprising a C89A substitution)
B3: csUBP7 W90C: csUBP7 90C cysteine mutant (SEQ ID NO: 28), tested as Acrylodan and Badan conjugates (conjugate)
chain: MSSSESEKEKSEETIKVGILHSLSGTMSISEVSLKDAELMAIEEINNNGGVLGKKLEPIVEDGASDWPTFAEKAKKLLQKDKVAVIFGACTSASRKAVLPVVEENNGLLFYPVQYEGLESSPNIFYMGAAPNQQIVPAVKWLFDNGKKRFYLLGSDYVFPRTANKIIKAYLKYLGGVVVGEEYTPLGHTDYSSVINKIKAAKPDVVFNTLNGDSNVAFFKQLKDAGIDANTLPVMSVSIAEEEIKGIGPEYLKGHLVTWNYFQSVDTPENKEFVEKYKKKYGEDRVTDDPIEAAYIGVYLWAKAVEKAGSTDVDKVREAAKGIEFNAPEGPVKIDGDNQHLYKTVRIGEILENGQIRELWKTNKPVKPDPYLKGYEWAQGLSEQGGSHHHHHH
modifications: Acrylodan or Badan conjugate; csUBP7_90C (90C substitution mutant with signal peptide replaced with M and a GGSHHHHHH at C-terminus, and also comprising a C89A substitution)
B4: csUBP7 S30C: csUBP7 30C cysteine mutant (SEQ ID NO: 25), tested as Acrylodan and Badan conjugates (conjugate)
chain: MSSSESEKEKSEETIKVGILHSLSGTMSICEVSLKDAELMAIEEINNNGGVLGKKLEPIVEDGASDWPTFAEKAKKLLQKDKVAVIFGAWTSASRKAVLPVVEENNGLLFYPVQYEGLESSPNIFYMGAAPNQQIVPAVKWLFDNGKKRFYLLGSDYVFPRTANKIIKAYLKYLGGVVVGEEYTPLGHTDYSSVINKIKAAKPDVVFNTLNGDSNVAFFKQLKDAGIDANTLPVMSVSIAEEEIKGIGPEYLKGHLVTWNYFQSVDTPENKEFVEKYKKKYGEDRVTDDPIEAAYIGVYLWAKAVEKAGSTDVDKVREAAKGIEFNAPEGPVKIDGDNQHLYKTVRIGEILENGQIRELWKTNKPVKPDPYLKGYEWAQGLSEQGGSHHHHHH
modifications: Acrylodan or Badan conjugate; csUBP7_30C (30C substitution mutant with signal peptide replaced with M and a GGSHHHHHH at C-terminus, and also comprising a C89A substitution)
B5: csUBP7 T26C: csUBP7 26C cysteine mutant (SEQ ID NO: 23), tested as Acrylodan and Badan conjugates (conjugate)
chain: MSSSESEKEKSEETIKVGILHSLSGCMSISEVSLKDAELMAIEEINNNGGVLGKKLEPIVEDGASDWPTFAEKAKKLLQKDKVAVIFGAWTSASRKAVLPVVEENNGLLFYPVQYEGLESSPNIFYMGAAPNQQIVPAVKWLFDNGKKRFYLLGSDYVFPRTANKIIKAYLKYLGGVVVGEEYTPLGHTDYSSVINKIKAAKPDVVFNTLNGDSNVAFFKQLKDAGIDANTLPVMSVSIAEEEIKGIGPEYLKGHLVTWNYFQSVDTPENKEFVEKYKKKYGEDRVTDDPIEAAYIGVYLWAKAVEKAGSTDVDKVREAAKGIEFNAPEGPVKIDGDNQHLYKTVRIGEILENGQIRELWKTNKPVKPDPYLKGYEWAQGLSEQGGSHHHHHH
modifications: Acrylodan or Badan conjugate; csUBP7_26C (26C substitution mutant with signal peptide replaced with M and a GGSHHHHHH at C-terminus, and also comprising a C89A substitution)
B6: csUBP7 T69C: csUBP7 69C cysteine mutant (SEQ ID NO: 27), tested as Acrylodan and Badan conjugates (conjugate)
chain: MSSSESEKEKSEETIKVGILHSLSGTMSISEVSLKDAELMAIEEINNNGGVLGKKLEPIVEDGASDWPCFAEKAKKLLQKDKVAVIFGAWTSASRKAVLPVVEENNGLLFYPVQYEGLESSPNIFYMGAAPNQQIVPAVKWLFDNGKKRFYLLGSDYVFPRTANKIIKAYLKYLGGVVVGEEYTPLGHTDYSSVINKIKAAKPDVVFNTLNGDSNVAFFKQLKDAGIDANTLPVMSVSIAEEEIKGIGPEYLKGHLVTWNYFQSVDTPENKEFVEKYKKKYGEDRVTDDPIEAAYIGVYLWAKAVEKAGSTDVDKVREAAKGIEFNAPEGPVKIDGDNQHLYKTVRIGEILENGQIRELWKTNKPVKPDPYLKGYEWAQGLSEQGGSHHHHHH
modifications: Acrylodan or Badan conjugate; csUBP7_69C (69C substitution mutant with signal peptide replaced with M and a GGSHHHHHH at C-terminus, and also comprising a C89A substitution)

Experiments:
[1] = Urea titration of emission intensity spectra (Nanodrop3300) with ratiometric analysis, singly labeled conjugates; assay type: binding; parameters: key to Acrylodan Intensity / Badan Intensity: +, increases in response to urea; −, decreases; 0, no change; key to Badan Dipoles / Acrylodan Dipoles: blue, (maxima <500 nm); g, green (maxima >500 nm); b/g, mixed population; key to Acrylodan Shape / Badan Shape: m, monochromatic; d, dichromatic (i.e. spectral shape changes); 0, no change; conditions: for Acrylodan Intensity / Badan Intensity: emission intensity change on urea; for Acrylodan Shape / Badan Shape: emission spectrum shape change on urea; for Acrylodan Dipoles / Badan Dipoles: estimated change in populations of major emission bands; for Kd: urea
Text: Determination of emission intensity spectra.
(§1) Ratiometric analysis of urea binding. […] 2
(§2) For a single urea-binding site, the fractional saturation is given by
(§3) [formula] where [L] is the ligand (urea) concentration and Kd the dissociation constant, ^trueKd for ytrue.
[formula] where ^appIλ2 and ^satIλ2 are the emission intensities of the monochromatic signal at wavelength λ2 of the ligand-free and ligand-bound protein, respectively.

[2] = Temperature- and urea-dependent fluorescence landscapes of fluorescent conjugates (Roche LightCycler); assay type: binding; parameters: key: y, yes; n, no; conditions: fluorescent response to urea
Experimental: We constructed 20 single cysteine mutants in csUBP7, exploring 7 endosteric, 12 peristeric, and 1 allosteric position (FIG. 9). At each position we attached the Prodan-derived fluorophores Acrylodan and Badan, which differ by one methylene group in their thiol-reactive linker. The fluorescent responses of these conjugates was determined initially as a function of urea concentration and temperature (FIG. 10). […] The ligand dependence of the emission spectra shapes was determined for these conjugates (Table 8).
Determination of temperature- and ligand-dependent fluorescence landscapes. […] Urea concentrations were varied from 0-4.8 M in 20 mM KCl, 20 mM MOPS (pH 7.4). […] Temperatures were advanced in 1K steps.
as §1, §2, §3
To obtain the temperature dependence of the binding reaction, the Kd values of all the individually determined isotherms were fit the Gibbs-Hemholtz equation (Layton and Hellinga, 2010, Biochemistry, 49, 10831-41):
[formula] where ΔGb^•(T) is the standard free energy of binding at 1 M ligand at temperature T,
[formula] Δ^refHb^• and Δ^refSb^• the molar enthalpy and entropy of binding, respectively, at the reference temperature, Tref, and ΔCp,b the heat capacity of the binding reaction.

[3] = csUBP7 Acrylodan conjugate, read-out: Acrylodan ^trueKd
[4] = csUBP7 Badan conjugate, read-out: Badan ^trueKd

Molecule	ratiometric response to urea ([1]; Acrylodan and Badan conjugates screened)	Acrylodan Intensity ([1]; csUBP7 Acrylodan conjugate)	Acrylodan Shape ([1]; csUBP7 Acrylodan conjugate)	Acrylodan Dipoles ([1]; csUBP7 Acrylodan conjugate)	Kd [1, 3]	Badan Intensity ([1]; csUBP7 Badan conjugate)	Badan Shape ([1]; csUBP7 Badan conjugate)	Badan Dipoles ([1]; csUBP7 Badan conjugate)	Kd [1, 4]	Response ([2]; Acrylodan conjugate)	Response ([2]; Badan conjugate)
B1	good ratiometric responses	−	m	b (blue, (maxima <500 nm))	300 µM	+	d	g→b	2200 µM	y	y
B2		+	m	g (g, green (maxima >500 nm))	4600 µM	−	d	g→b/g	3200 µM	y	y
B3		+	d	b/g→b	7100 µM	+	m	b/g	8500 µM	y	y
B4		+	d	b/g→b	5200 µM	+	d	g→b	300 µM	y	y
B5		−	d	b→g	90 µM	−	m	b/g	300 µM	y	y
B6			0	g (g, green (maxima >500 nm))		−	d	g→b/g	7 µM	n	y
